Source: patent publication US7611721B1, “Adjuvant combination formulations” (priority 2000, dated 2009)
Read-outs that look alike come from different tables or passages of the source.

Key:
spleen cells [1] = test: Secretion of interferon-gamma by spleen cells (ELISA); type: cell-based, Balb/c mice; details: for Secretion of Interferon-gamma, Con A 1 μg/ml: Experiment 1
Description: (§1) For proliferation assays and in vitro cytokine analysis, spleen cells were obtained from mice at the indicated time points. Single cell suspensions were prepared from pools of 3-5 mice as indicated in Results. For proliferation and cytokine analysis, cells were suspended in round bottom 96 well culture plates precoated overnight with HIV peptide antigens, control proteins, or RPMI-10 only. Spleen cells were added at 5×10^5 cells/well using culture medium having 2× supplements. Cell culture supernatants were harvested from triplicate wells for cytokine analysis three or six days after culture initiation. Immediately after supernatant harvest, cultures were pulsed with ^3H-thymidine for 18-24 hours, and harvested to quantify cell proliferation.
(§2) For cytokine analysis, cell culture supernatants were added to wells coated with BVD6-11B11 (for anti-IL4), or R4-6A2 (for interferon-gamma). After incubation and washing, wells were developed using biotin-labeled BVD6-24G2 (for IL4) or XMG 1.2 (for interferon-gamma). The concentration of cytokines was determined using a standard curve prepared from recombinant murine interferon-gamma or interleukin-4. All cytokine reagents were purchased from Pharmingen (San Diego, Calif.).
(§3) Interferon-gamma secreted into culture by spleen cells stimulated with 25 μg T1SP10MN(A) (−Cys). Spleen cells were harvested from pools of five Balb/c female mice and cultured with the indicated antigenic stimuli (the same as in Example 6) for either three or six days. Interferon-gamma levels were determined by ELISA, and compared to a standard having a known concentration. Blank wells indicate that the assay could not detect Interferon-gamma from those culture conditions. The lower limit of detection sensitivity was 4 picograms/ml.
Cells were cultured for a total of 96 hours. Cell culture supernatants were analyzed for interferon-gamma by ELISA. All values were after subtraction from those determined from supernatants of cells stimulated with 10 μg of lysozyme. Results which were below the limit of detection, after subtraction from stimulation induced with lysozyme are indicated as “bd”. The adjuvants were the same as those in Example 12.

spleen cells [2] = type: cell-based, Balb/c mice
Description: as §1
Groups of five Balb/c female mice were immunized with 25 μg T1SP10MN(A) (−Cys) and the indicated adjuvants on days 0 and 28. Spleen cells were established in culture on day 56, and harvested for measurement of ^3H-thymidine incorporation 96 hours later. Mice were immunized with 50 ng IL-12, […], 50 μg MPL™ in an aqueous formulation, or as a stable emulsion with 2% SE. Data are presented as the delta cpm values as compared to proliferation values measured from cells grown in culture without stimulation.
Cells were cultured for a total of 96 hours. ^3H-thymidine was added to cultures for the last 18 hours. Data are presented as a proliferation index normalized to cells stimulated in culture with ConA ([mean cpm Antigen/mean cpm ConA]−[mean cpm medium/mean cpm ConA])×100. As a result, cells cultured in medium have a background proliferation of 0. Proliferation values less than cells grown in culture unstimulated are in parentheses.

T1SP10MN(A) (−Cys) [3] = test system: T1SP10MN(A) (−Cys)
Description: Mice were immunized subcutaneously in the rump, in a total volume of 0.2 ml equally divided on each side of the tail. Immunizations were administered at varying time intervals, as indicated below. Antigen and cytokines were diluted in phosphate buffered saline to the appropriate concentrations and formulated with adjuvants less than 16 hours prior to immunization, under sterile conditions. Vaccines were mixed by gentle agitation, and stored at 4° C. Formulations were mixed by vortex immediately prior to immunization.
Animals were bled prior to initial immunization, and at indicated time points. Serum was analyzed from individual mice, or as pools from mice within groups.
For analysis of HIV peptide-specific antibody and subclass distribution, peptide was suspended in either carbonate buffer (15 mM Na2CO3, 35 mM NaHCO3, pH 9.6), or PBS, at a concentration of 1 μg/ml and plated to 96 well microtiter plates (Nunc) in a volume of 100:1. After overnight incubation at 37° C., plates were washed, and blocked (0.1% gelatin/PBS) at room temperature for 2-4 hours. ELISA plates were washed with wash buffer (PBS, 0.1% Tween™20) before addition of serially diluted serum (PBS, 0.1% gelatin, 0.05% Tween™20, 0.02% sodium azide). After a four hour incubation, wells were washed and appropriate dilutions of biotinylated anti-isotype/subclass antibodies were added for incubation at 4° C. overnight. Wells were washed and incubated with strepavidin-conjugated horseradish peroxidase. After incubation, wells were washed, and developed with ABTS. Wells were read at 405 nm. Titers were standardized using control sera.
Reciprocal anti-HIV peptide-specific IgG endpoint titers were measured from pooled serum (n=5 Balb/c) at the indicated time points after initial immunization. Mice were immunized subcutaneously in the rump with 25 μg of T1SP10MN(A) (−Cys), unless otherwise indicated, on day 0, and on day 27. For recipients of Freund's adjuvants, mice were primed with peptide emulsified in CFA, and boosted with IFA. MPL™ SE was provided as an emulsion containing 2% squalene oil and 50 μg MPL™ per dose. SE is an oil-in-water emulsion vehicle consisting of squalene, glycerol, and an emulsifying agent. Recombinant murine IL-12 was delivered at 50 ng/mouse. Recombinant murine GM-CSF was delivered at 10 μg/mouse.
Reciprocal endpoint IgG subclass titers were measured from pooled serum (n=5 Balb/c) six weeks after initial immunization, two weeks after secondary immunization. Mice were immunized subcutaneously in the rump with 25 μg of peptide, unless otherwise indicated. For recipients of Freund's adjuvants, mice were primed with peptide emulsified in complete Freund's adjuvant, and boosted with incomplete Freund's adjuvant on weeks four and six. MPL™ SE was provided as an emulsion containing 2% squalene oil and 50 μg MPL™ per dose. SE is an oil-in-water emulsion vehicle consisting of squalene, glycerol, and an emulsifying agent. Recombinant murine IL-12 was delivered at 50 ng/mouse. Recombinant murine GM-CSF was delivered at 10 μg/mouse.
Mice were immunized subcutaneously in the rump, in a total volume of 0.2 ml equally divided on each side of the tail. Immunizations were administered on days 0 and 21 with 25 μg of the HIV peptide, together with the indicated amount of adjuvant(s).
Reciprocal anti-peptide IgG endpoint titers were measured from either geometric means from individual mice (GMT) or from pooled serum (n=5 Balb/c), obtained 14 days after the second immunization. IgG1 and IgG2a subclass endpoint titers were also measured from pooled serum.

T1SP10MN(A) (−Cys) [4] = details: Experiment 3; pooled, n=5 Swiss-Webster; 15 days after secondary immunization
Description: The protocols of Experiment 2 were followed, with Swiss-Webster mice used instead of Balb/c mice. Only reciprocal anti-peptide IgG endpoint titers and vaginal lavage endpoint reciprocal endpoint IgG and IgA antibody titers were measured in this experiment.
Aqueous MPL™ was delivered at 50 μg per dose. Recombinant murine IL-12 was delivered at 40 ng/mouse. Recombinant murine GM-CSF was delivered at 10 μg/mouse.

spleen cells [5] = test: Secretion of IL-4 by spleen cells (ELISA); type: cell-based, Balb/c mice
Description: as §1, §2
as §3, with “Interleukin-4” for “Interferon-gamma”, “(−Cys) was measured.” for “(−Cys).”, “(50 ng IL-12, 10 μg GM-CSF, 50 μg MPL™” for “(the same”, “indicated)” for “in Example 6)”, “22 Units/ml.” for “4 picograms/ml.”
Cells were cultured for a total of 96 hours. Cell culture supernatants were analyzed for IL-4 by ELISA. All values were after subtraction from those determined from supernatants of cells stimulated with 10 μg of an irrelevant protein (lysozyme). Results which were below the limit of detection, after subtraction from stimulation induced with lysozyme are indicated as “bd”. The adjuvants were 40 ng IL-12, 10 μg GM-CSF and 50 μg MPL™.

[6] = Experiment 2, 96 hours culture, after subtraction of lysozyme value
[7] = Experiment 2, 96 hours culture, after subtraction of lysozyme value, bd = below limit of detection
[8] = Experiment 1, immunized days 0 and 28, culture day 56, 96 hours
[9] = Experiment 2, 96 hours culture, values in parentheses are less than unstimulated cells
[10] = Experiment 1, pooled serum n=5 Balb/c, 25 μg peptide s.c. day 0 and 27
[11] = Experiment 1, pooled serum n=5 Balb/c, six weeks after initial, two weeks after secondary immunization, 25 μg peptide
[12] = Experiment 2, pooled serum n=5 Balb/c, 14 days after second immunization
[13] = Experiment 4, individual Balb/c mouse, day 41, 13 days after secondary immunization (days 0 and 28)
[14] = Experiment 4, pooled serum n=5 Balb/c, day 41, 13 days after secondary immunization
[15] = Experiment 5, pooled serum n=5 Balb/c, immunized days 0 and 22, bled day 42

B1: GM-CSF: Recombinant murine granulocyte macrophage colony stimulating factor (protein, UniProt P01587 18-141, looked up)
Granulocyte-macrophage …: APTRSPITVTRPWKHVEAIKEALNLLDDMPVTLNEEVEVVSNEFSFKKLTCVQTRLKIFEQGLRGNFTKLKGALNMTASYYQTYCPPTPETDCETQVTTYADFIDSLKTFLTDIPFECKKPGQK
Spleen cells [1]; Six Day Cultures
  Secretion of Interferon-gamma, Con A 1 μg/ml: 7.3 picograms/ml
Spleen cells [1]; Three Day Cultures, detection limit 4 picograms/ml
  Secretion of Interferon-gamma, Con A 1 μg/ml: 17.6 picograms/ml
Spleen cells [1]; [6]
  Secretion of Interferon-gamma, Con A 5 μg/ml: 167 units/ml
Spleen cells [1]; [7]
  Secretion of Interferon-gamma, HIV Peptide 1.1 μg/ml: 4 units/ml
  Secretion of Interferon-gamma, HIV Peptide 3.3 μg/ml: 3 units/ml
  Secretion of Interferon-gamma, HIV Peptide 10 μg/ml: 2 units/ml
Spleen cells [2]; [8]
  Spleen cell proliferation, Con A 1 μg/ml: 55,578 delta cpm
  Spleen cell proliferation, HIV Peptide 1.1 μg/ml: 14,249 delta cpm
  Spleen cell proliferation, HIV Peptide 3.3 μg/ml: 19,784 delta cpm
  Spleen cell proliferation, HIV Peptide 10 μg/ml: 25,821 delta cpm
Spleen cells [2]; Experiment 2, 96 hours culture
  Spleen cell proliferation index normalized to ConA, Con A 5 μg/ml: 99.0
Spleen cells [2]; [9]
  Spleen cell proliferation index normalized to ConA, HIV Peptide 1.1 μg/ml: 1.6
  Spleen cell proliferation index normalized to ConA, HIV Peptide 3.3 μg/ml: 2.7
  Spleen cell proliferation index normalized to ConA, HIV Peptide 10 μg/ml: 6.8
  Spleen cell proliferation index normalized to ConA, Lysozyme 10 μg/ml: 0.1
T1SP10MN(A) (−Cys) [3]; [10]
  Reciprocal anti-T1SP10MN(A) (-Cys) IgG endpoint titer, WEEK 4: <100
  Reciprocal anti-T1SP10MN(A) (-Cys) IgG endpoint titer, WEEK 6: 17,579
  Reciprocal anti-T1SP10MN(A) (-Cys) IgG endpoint titer, WEEK 8: 12,537
T1SP10MN(A) (−Cys) [3]; [11]
  Reciprocal anti-T1SP10MN(A) (-Cys) IgG1 endpoint titer: 1,783
  Reciprocal anti-T1SP10MN(A) (-Cys) IgG2a endpoint titer: <100
  Reciprocal anti-T1SP10MN(A) (-Cys) IgG2b endpoint titer: <100
T1SP10MN(A) (−Cys) [3]; Experiment 2, geometric mean of individual Balb/c mice, 14 days after second immunization
  Reciprocal anti-T1SP10MN(A) (−Cys) IgG (GMT) endpoint titer: 1,756
T1SP10MN(A) (−Cys) [3]; [12]
  Reciprocal anti-T1SP10MN(A) (−Cys) IgG1 (pool) endpoint titer: 14,538
  Reciprocal anti-T1SP10MN(A) (−Cys) IgG2a (pool) endpoint titer: 4,864
T1SP10MN(A) (−Cys) [3]; Experiment 2, pooled serum n=5 Balb/c, immunized days 0 and 21, 14 days after second immunization
  Reciprocal anti-T1SP10MN(A) (−Cys) IgG (pool) endpoint titer: 27,333
T1SP10MN(A) (−Cys) [3]; [13]
  IgG serum titer specific for T1SP10MN(A) (−Cys), Mouse #1: 50
  IgG serum titer specific for T1SP10MN(A) (−Cys), Mouse #2: 50
  IgG serum titer specific for T1SP10MN(A) (−Cys), Mouse #3: 50
  IgG serum titer specific for T1SP10MN(A) (−Cys), Mouse #4: 50
  IgG serum titer specific for T1SP10MN(A) (−Cys), Mouse #5: 50
T1SP10MN(A) (−Cys) [3]; Experiment 4, n=5 Balb/c, day 41, 13 days after secondary immunization
  Geometric Mean IgG serum titer specific for T1SP10MN(A) (−Cys), GMT: 50
T1SP10MN(A) (−Cys) [3]; [14]
  Reciprocal anti-T1SP10MN(A) (−Cys) IgG1 endpoint titer: 5,514
  Reciprocal anti-T1SP10MN(A) (−Cys) IgG2a endpoint titer: <100
  Reciprocal anti-T1SP10MN(A) (−Cys) IgG2b endpoint titer: <100
T1SP10MN(A) (−Cys) [3]; Experiment 5, geometric mean n=5 Balb/c, immunized days 0 and 22, bled day 42
  Reciprocal anti-T1SP10MN(A) (−Cys) IgG GMT: 5,133
T1SP10MN(A) (−Cys) [3]; [15]
  Reciprocal anti-T1SP10MN(A) (−Cys) IgG1 endpoint titer: 3,815
  Reciprocal anti-T1SP10MN(A) (−Cys) IgG2a endpoint titer: <1000
  Reciprocal anti-T1SP10MN(A) (−Cys) IgG2b endpoint titer: <1000
  Reciprocal anti-T1SP10MN(A) (−Cys) IgG endpoint titer: 11,639
T1SP10MN(A) (−Cys) [4]
  Vaginal lavage reciprocal anti-HIV peptide IgA endpoint titer: <10
  Vaginal lavage reciprocal anti-HIV peptide IgG endpoint titer: <10
Spleen cells [5]; Experiment 1, Three Day Cultures, detection limit 22 Units/ml
  Secretion of IL-4, Con A 1 μg/ml: 159 Units/ml
Spleen cells [5]; [6]
  Secretion of IL-4, Con A 5 μg/ml: 226 pg/mL
Spleen cells [5]; [7]
  Secretion of IL-4, HIV Peptide 1.1 μg/ml: 36 pg/mL
  Secretion of IL-4, HIV Peptide 3.3 μg/ml: 9 pg/mL
  Secretion of IL-4, HIV Peptide 10 μg/ml: bd
